Data on seven molecules can be found in US20230321261A1, “AXL-SPECIFIC ANTIBODY-DRUG CONJUGATES FOR CANCER TREATMENT” (GENMAB A/S, priority 2016, published 2023).

Where a chain is given by its changes, count along the chain named. In names and notes the source's numbering stands.

In assay [1] the target is T1, AXLECDHis (extracellular domain of human AXL) (Homo sapiens, UniProt P30530).
T1 construct: the extracellular domain (ECD) of human AXL (aa 1-447) with a C-terminal His tag (AXLECDHis); His tag (C); made in house; host or cells: HEK-293F
The experiment in a line: Binding affinity by Bio-Layer Interferometry (ForteBio OctetRED384). Particulars: 1:1 model, 30° C.

Another assay deals with T2, AXL on A431 cells (Homo sapiens, UniProt P30530).
T2 construct: AXL-positive A431 cells were incubated; endogenous in cells; host or cells: A431
Put plainly: Antibody binding to A431 cells with or without Gas6 pre-incubation. Particulars: for Antibody binding to A431 cells: EC50 in presence of Gas6 (µg/mL) mean (s.d.) / Antibody binding to A431 cells: Maximal binding in presence of Gas6 (% of binding in absence of Gas6) mean (s.d.): pre-incubation with 10 µg/mL Gas6; for Antibody binding to A431 cells: EC50 w/o Gas6 (µg/mL) mean (s.d.): without Gas6 pre-incubation.

Assay [2] concerns the target T3, human-mouse chimeric AXL mutants (Homo sapiens, UniProt P30530, A273L/A287V/A310S/E275K/E281D/G297E/H300L/L233V/M269V/N230H/P276S/P329T/Q227R/Q272W/R229H/S285L/S298K/S319P/T259N/T312S/V309I).
T3 construct: constructs for expression of various full-length AXL variants were generated; expressed in transfected cells; host or cells: HEK293F
The experiment in a line: AXL domain specificity using human-mouse AXL chimeric molecules (flow cytometry). Type of assay: binding. The note with it: 1 µg/mL antibody. In general terms: A flow cytometer gives signals particle by particle.

Assay [3] has as its target T4, Gas6 binding to AXL on A431 cells (Homo sapiens, UniProt P30530).
T4 construct: endogenous in cells; host or cells: A431
Put plainly: Gas6 binding to A431 cells pre-incubated with AXL antibodies. Particulars: pre-incubation with 10 µg/mL antibody; control antibody b12. The procedure:
Alternatively, A431 cells were pre-incubated with 10 µg/mL AXL antibodies (15 minutes, 4° C.) to assess if the AXL ligand Gas6 could still bind in presence of AXL antibodies. […] After washing three times in PBS/0.1% BSA/0.02% azide, cells were incubated with mouse anti-Gas6 IgG2a (R&D Systems; cat no. MAB885) at 4° C. for 30 min. After washing three times in PBS/0.1% BSA/0.02% azide, cells were incubated with FITC-labelled goat anti-mouse IgG (Dako, Heverlee, Belgium; cat no. F049702) at 4° C. for 30 min in the dark. Next, cells were washed twice in PBS/0.1% BSA/0.02% azide, resuspended in 120 µL PBS/0.1% BSA/0.02% azide and analyzed on a FACS Cantoll (BD Biosciences).
(§1) Binding curves were analyzed using non-linear regression (sigmoidal dose-response with variable slope) using GraphPad Prism V5.04 software (GraphPad Software, San Diego, CA, USA).
Therefore, binding of Gas6 to A431 cells that had been pre-incubated with 10 µg/mL AXL antibodies was tested as described in Example 2.

The next assay has as its target T5, full length human AXL (Homo sapiens, UniProt P30530).
T5 construct: expression constructs for full length human AXL; expressed in transfected cells; host or cells: HEK293T
The experiment in a line: Flow cytometry binding to transfected HEK293T cells. Particulars: at least 3 experiments. How it is done: HEK293T cells were transiently transfected with expression constructs for full length human AXL, human AXL with a cynomolgus monkey extracellular domain (ECD) or human AXL with a mouse ECD (see Example 1). Binding of HuMab-AXL antibodies to these cells was evaluated by flow cytometry. Transfected HEK293 cells were incubated with serial dilutions of AXL-antibodies (final concentration range 0.0024-10 µg/mL) for 30 minutes at 4° C. […] Next, cells were washed twice in PBS/0.1% BSA/0.02% azide, resuspended in 120 µL PBS/0.1% BSA/0.02% azide and analyzed on a FACS Cantoll (BD Biosciences).
as §1

The target in assay [4] is T6, human AXL with a cynomolgus monkey extracellular domain (ECD) (Homo sapiens, UniProt P30530, P441T/S191N/S285L/T105A/T112A/T125N/T443A).
T6 construct: aa 1-447); human AXL transmembrane and intracellular part (the remainder of human AXL after the ECD; expressed in transfected cells; host or cells: HEK293T
Described as above. The note with it: at least 3 experiments.

A further assay concerns A431 tumors. Put plainly: A431 xenograft model (high Gas6). It counts as in vivo, SCID mice. The note with it: 3 mg/kg. The procedure: (§2) Tumor induction was performed by subcutaneous injection of 5 × 10^6 A431 or LCLC-103H tumor cells (both obtained from Leibniz-Institut - Deutsche Sammlung von Mikroorganismen und Zellkulturen GmbH (DSMZ)) in 200 µL PBS in the right flank of female SCID mice. Treatment was started 14-21 days after tumor cell inoculation, when the average tumor size was >100-200 mm^3 and distinct tumor growth was observed. Mice received a single injection or a total of 4 biweekly intraperitoneal injections with IgG1-AXL-vcMMAE ADCs or control antibody (unconjugated IgG1-b12), as indicated. Tumor volume was determined at least two times per week. Tumor volumes (mm^3) were calculated from caliper (PLEXX) measurements as: 0.52 × (length) × (width)^2.

Assay [5] has as its system LCLC-103H xenograft tumors. The experiment in a line: LCLC-103H xenograft model. It counts as in vivo, SCID mice. Particulars: 3 mg/kg (Example 13, FIG. 14A). The procedure:
5 × 10^6 LCLC-103H (large cell lung carcinoma) tumor cells (obtained from Leibniz-Institut DSMZ-Deutsche Sammlung von Mikroorganismen und Zellkulturen GmbH (DSMZ)) in 200 µL PBS were injected subcutaneously in the right flank of female SCID mice. Starting 14-21 days after tumor cell inoculation, when the average tumor size was >100-200 mm^3 and distinct tumor growth was observed, a single injection with 1 mg/kg (20 µg/mouse) IgG1-AXL-vcMMAE antibodies (as described in Supplementary Example 1) or control (unconjugated IgG1-b12) was given intraperitoneally (100 µL/mouse). Tumor volume was determined at least two times per week. Tumor volumes (mm^3) were calculated from caliper (PLEXX) measurements as: 0.52 × (length) × (width)^2.
as §2

For assay [6], the target named is T7, human AXL transiently expressed by HEK-293F cells (Homo sapiens, UniProt P30530).
T7 construct: TH1021-AXL (HEK-293F cells transiently expressing full length human AXL; produced as described above); expressed in transfected cells; host or cells: HEK-293F
The experiment in a line: Homogeneous antigen specific screening assay (FMAT). It counts as binding.

B1: IgG1-AXL-183: AXL-specific human IgG1,κ antibody, VH SEQ ID NO:16, VL SEQ ID NO:18, FN1 domain binding (antibody, listed as Homo sapiens, V domains shown)
VH: QVQLQQWGAGLLKPSETLSLTCAVYGGSFSGYYWSWIRQPPGKGLEWIGEINQSGSTNYNPSLKSRVTISVDTSKNQFSLKLSSVTAADTSVYYCASGNWDHFFDYWGQGTLVTVSS
VL: DIQMTQSPSSVSASVGDRVTITCRASQGISSWLAWYQHKPGKAPKLLIYATSSLQSGVTSRFSGSGSGTDFTLTISSLQPEDFATYYCQQAKSFPWTFGQGTKVEIK
Regarding B1, the “Binding affinity (OCTET) Kdis” value in [1] came out at 0.00042 s⁻¹. Also, in the assay with AXL on A431 cells, the “Antibody binding to A431 cells: EC50 in presence of Gas6 (µg/mL) mean (s.d.)” value was 1.19 (1.11) µg/mL, the “Antibody binding to A431 cells: Maximal binding in presence of Gas6 (% of binding in absence of Gas6) mean (s.d.)” value is listed as 90 (19) % and the “Antibody binding to A431 cells: EC50 w/o Gas6 (µg/mL) mean (s.d.)” value is reported as 0.69 (0.72) µg/mL. In addition, in [2], the “binding to hsAXL-mmFN1” value was “reduced binding”. The “Gas6 binding to A431 cells: Maximal binding in presence of AXL antibodies (% of binding in presence of control antibody) mean (s.d.)” value in assay [3] was 115 (8) %. Moreover, the “Binding EC50 (µg/mL) human AXL Average (s.d.)” value with full length human AXL was 0.526 (0.177) µg/mL. The “Binding EC50 (µg/mL) cynomolgus AXL Average (s.d.)” value in [4] was 0.309 (0.086) µg/mL.

B2: IgG1-AXL-183-N52Q: point mutant of IgG1-AXL-183, VH SEQ ID NO:17, VL SEQ ID NO:18 (antibody, listed as Homo sapiens, V domains shown)
VH: B1 VH with N52Q
VL: B1 VL
For the molecule B2, in [1], the “Binding affinity (OCTET) Kdis” value stood at 0.001 s⁻¹ and the “Binding affinity (OCTET) Kon” value amounted to 42000 M⁻¹ s⁻¹. Also, the “Binding EC50 (µg/mL) human AXL Average (s.d.)” value with full length human AXL is given as 0.350 (0.206) µg/mL. Besides, the “Binding EC50 (µg/mL) cynomolgus AXL Average (s.d.)” value in assay [4] is 0.324 (0.121) µg/mL.

B3: IgG1-AXL-183-vcMMAE (conjugate)
VH: B1 VH
VL: B1 VL
B3: in the assay on A431 tumors, the “anti-tumor activity in the A431 xenograft model” value is on record as “growth inhibition”. In assay [5], the “anti-tumor activity in the LCLC-103H xenograft model” value is “tumor regression”.

B4: IgG1-AXL-511: AXL-specific human IgG1,κ antibody, VH SEQ ID NO:136, VL SEQ ID NO:140, Ig2 domain binding (antibody, listed as Homo sapiens, V domains shown)
VH: EVQLLESGGGLVQPGGSLRLSCAASGFTFSSYAMNWVRQAPGKGLEWVSGISGSGGHTYHADSVKGRFTISRDNSKNTLYLQMNSLRAEDTAVYYCAKDRYDILTGYYNLLDYWGQGTLVTVSS
VL: DIQMTQSPSSLSASVGDRVTITCRASQGISSWLAWYQQKPEEAPKSLIYAASSLQSGVPSRFSGSGSGTDFTLTISSLQPEDFATYYCQQYNSYPLTFGGGAKVEIK
Turning to B4, in assay [1], the “Binding affinity (OCTET) Kdis” value worked out at 0.0039 s⁻¹ and the “Binding affinity (OCTET) Kon” value was found to be 170000 M⁻¹ s⁻¹. Besides, in the assay with AXL on A431 cells, the “Antibody binding to A431 cells: EC50 in presence of Gas6 (µg/mL) mean (s.d.)” value is on record as 0.30 (0.31) µg/mL, the “Antibody binding to A431 cells: Maximal binding in presence of Gas6 (% of binding in absence of Gas6) mean (s.d.)” value was 93 (15) % and the “Antibody binding to A431 cells: EC50 w/o Gas6 (µg/mL) mean (s.d.)” value was 0.12 (0.11) µg/mL. The “Gas6 binding to A431 cells: Maximal binding in presence of AXL antibodies (% of binding in presence of control antibody) mean (s.d.)” value in [3] is reported as 113 (6) %.

B5: IgG1-AXL-187: AXL-specific human IgG1,κ antibody, VH SEQ ID NO:19, VL SEQ ID NO:20 (antibody, listed as Homo sapiens, V domains shown)
VH: QVPLQQWGAGLLKPSETLSLTCAVYGGSFSGYHWSWIRQPPGKGLEWIGEISHSGRTNYNPSLKSRVTISIDTSKNQFSLKLSSVTAADTAVYYCASFITMIRGTIITHFDYWGQGTLVTVSS
VL: B4 VL with E42K, N92H, L96Y, G100Q, A102T, V104L
In the case of B5, the “Maximal binding (Arbitrary units)” value in [6] was 2563 Arbitrary units.

B6: IgG1-AXL-140: AXL-specific human IgG1,κ antibody, VH SEQ ID NO:3, VL SEQ ID NO:4 (antibody, listed as Homo sapiens, V domains shown)
VH: EVQLLESGGGLVQPGGSLRLSCAASGFTFSSYAMTWVRQAPGKGLEWVSAISISGASTFYADSVKGRFTISRDNSKNTLSLQMNSLRAEDTAVYFCRGYSGYVYDAFDIWGQGTMVTVSS
VL: B4 VL with S31N, E42K, A102T
For B6, the “Maximal binding (Arbitrary units)” value in [6] was found to be 2889 Arbitrary units.

B7: IgG1-AXL-726-vcMMAE (conjugate)
VH: B5 VH with P3Q, V24I, Y25D, H33Y, T86A, S97R, T105A, T117A
VL: B4 VL with E42K, N92H, L96Y, G100Q, A102T, V104L
Take B7: in the assay with A431 tumors, the “anti-tumor activity in the A431 xenograft model” value is “growth inhibition”. Further, in assay [5], the “anti-tumor activity in the LCLC-103H xenograft model” value is reported as “tumor regression”.
